Publication PMC7458460

Molecular target: CN391 (CNA_(1–391)/CNB_(1–170)) (UniProt Q08209)
Experiment: ITC

RCAN1_(core) WT (residues 128 to 164), sequence (P53805 183-219): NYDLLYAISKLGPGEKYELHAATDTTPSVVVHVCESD
CN391 (CNA_(1–391)/CNB_(1–170)), sequence (Q08209 1-391, chain 1 of 2): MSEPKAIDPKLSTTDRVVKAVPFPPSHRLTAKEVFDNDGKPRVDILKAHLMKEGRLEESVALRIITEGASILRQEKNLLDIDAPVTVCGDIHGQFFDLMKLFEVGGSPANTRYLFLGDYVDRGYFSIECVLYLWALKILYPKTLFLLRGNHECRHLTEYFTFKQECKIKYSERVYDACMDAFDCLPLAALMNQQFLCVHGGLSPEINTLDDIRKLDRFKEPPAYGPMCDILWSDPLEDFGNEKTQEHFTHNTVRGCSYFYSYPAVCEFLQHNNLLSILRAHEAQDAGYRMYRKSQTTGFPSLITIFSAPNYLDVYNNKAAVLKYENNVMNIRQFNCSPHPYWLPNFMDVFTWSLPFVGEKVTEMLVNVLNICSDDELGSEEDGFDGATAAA
CN391 (CNA_(1–391)/CNB_(1–170)), sequence (P63098 whole entry, chain 2 of 2, further chain): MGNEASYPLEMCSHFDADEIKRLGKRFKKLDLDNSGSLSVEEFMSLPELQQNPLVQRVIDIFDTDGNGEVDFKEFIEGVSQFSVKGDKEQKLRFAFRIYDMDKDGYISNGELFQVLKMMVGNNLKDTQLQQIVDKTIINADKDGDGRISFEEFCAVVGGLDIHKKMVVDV

Kd: 161 nM
dH: -18.8 kcal/mol
Substance: RCAN1_(core) WT (residues 128 to 164) (from UniProt P53805-2 128-164) (domain or fragment)
